This passage reports EC50 of adenylate cyclase stimulation (cAMP) results from patent US6723841.

Bridge positions count the residues as written; N and C are the ends. Ends that are not written are not given here.

T1: human CRF2α receptor (human) (UniProt Q13324)
T1 sequence: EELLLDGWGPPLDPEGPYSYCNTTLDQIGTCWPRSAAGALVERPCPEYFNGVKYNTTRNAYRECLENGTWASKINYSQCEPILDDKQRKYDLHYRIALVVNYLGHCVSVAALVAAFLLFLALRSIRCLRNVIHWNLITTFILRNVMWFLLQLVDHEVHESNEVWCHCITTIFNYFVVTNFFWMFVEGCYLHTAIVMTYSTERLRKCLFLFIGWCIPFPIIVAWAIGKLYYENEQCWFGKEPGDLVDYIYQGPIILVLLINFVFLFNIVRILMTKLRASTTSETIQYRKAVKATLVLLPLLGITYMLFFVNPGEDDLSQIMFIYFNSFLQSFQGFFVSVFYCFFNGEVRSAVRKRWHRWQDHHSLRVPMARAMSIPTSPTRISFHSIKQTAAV

Sequence of human CRF1 receptor (human) (P34998 24-415): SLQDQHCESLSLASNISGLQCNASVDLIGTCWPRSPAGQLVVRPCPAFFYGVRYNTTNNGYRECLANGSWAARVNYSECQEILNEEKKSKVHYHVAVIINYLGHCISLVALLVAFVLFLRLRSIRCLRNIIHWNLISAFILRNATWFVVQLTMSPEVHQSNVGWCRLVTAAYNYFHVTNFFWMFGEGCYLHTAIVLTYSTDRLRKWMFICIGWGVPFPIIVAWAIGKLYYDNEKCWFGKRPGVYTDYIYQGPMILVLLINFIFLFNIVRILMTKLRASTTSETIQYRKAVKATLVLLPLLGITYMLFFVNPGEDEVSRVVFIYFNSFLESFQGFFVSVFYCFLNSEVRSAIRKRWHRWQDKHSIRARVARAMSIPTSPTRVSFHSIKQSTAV

The first assay addresses human CRF1 receptor (human) (UniProt P34998). The experiment in a line: cell-based or functional assay.
SQEPPISLDLTFHLLREVLEMTKADQLAQQAHNNRKLLDIA-OH (peptide, UniProt Q95MI6 148-188, looked up) [deamidated bovine CRF] yielded an EC50 of adenylate cyclase stimulation (cAMP) of 1000 nM.
Still for that read-out and setting: the figure for SQEPPISLDLTFHLLREVLEMTKADQLAQQAHSNRKLLDIA (peptide, UniProt P01142 148-188, looked up, ends and bridges not checked) [ovine CRF] is 10 nM; for SQEPPISLDLTFHLLREVLEMTKADQLAQQAHNNRKLLDIA (peptide, UniProt Q95MI6 148-188, looked up) [bovine CRF] it is 30 nM.
Same read-out and setting: the figure for ISLDLTFHLLREVLEMARAEQLAQQAHS (peptide, UniProt P06850 159-186, looked up) [r/hCRF(6-33)] is more than 1000 nM; for YADAIFTNSYRKVLGQLSARKLLQDIMSRQQGESNQERGARARL (peptide, UniProt P01286 32-75, looked up, ends and bridges not checked) [hGRF] it is more than 1000 nM; for HSDAVFTDNYTRLRKQMAVKKYLNSILN (peptide, UniProt P01282 125-152, looked up, species assumed, ends and bridges not checked) [VIP] it is more than 1000 nM.
The same measure, in the same setting: the figure for FHLLREVLEMARAEQLAQQAHSNRKLMEII (peptide, UniProt P06850 165-194, looked up, d-Phe (position not given)) [d-Phe r/hCRF(12-41)] is more than 1000 nM; for QGPPISIDLSLELLRKMIEIEKQEKEKQQAANNRLLLDTI (peptide, UniProt P01144 1-40, looked up) [Sauvagine] it is 3 nM; for CYFQNCPRG-NH2 (peptide, UniProt P01185 20-28, looked up, species assumed, disulfide 1-6; ends not checked) [AVP] it is more than 1000 nM.
SEEPPISLDLTFHLLREVLEMARAEQLAQQAHSNRKLMEII (peptide, UniProt P06850 154-194, looked up) [rat/human CRF] showed an EC50 of adenylate cyclase stimulation (cAMP) of 4 nM.

The target in another assay is rat CRF2β receptor (rat). The experiment in a line: cell-based or functional assay.
Molecule QGPPISIDLSLELLRKMIEIEKQEKEKQQAANNRLLLDTI (peptide, UniProt P01144 1-40, looked up) [Sauvagine] had an EC50 of adenylate cyclase stimulation (cAMP) of 0.4 nM.
Take SEEPPISLDLTFHLLREVLEMARAEQLAQQAHSNRKLMEII (peptide, UniProt P06850 154-194, looked up) [rat/human CRF]: the EC50 of adenylate cyclase stimulation (cAMP) was 1 nM.

In the next assay the target is T1, human CRF2α receptor (human). The experiment in a line: cell-based or functional assay.
As to SQEPPISLDLTFHLLREVLEMTKADQLAQQAHNNRKLLDIA-OH (peptide, UniProt Q95MI6 148-188, looked up) [deamidated bovine CRF], the EC50 of adenylate cyclase stimulation (cAMP) is more than 1000 nM.
SQEPPISLDLTFHLLREVLEMTKADQLAQQAHSNRKLLDIA (peptide, UniProt P01142 148-188, looked up, ends and bridges not checked) [ovine CRF] displayed an EC50 of adenylate cyclase stimulation (cAMP) of 80 nM.
For SQEPPISLDLTFHLLREVLEMTKADQLAQQAHNNRKLLDIA (peptide, UniProt Q95MI6 148-188, looked up) [bovine CRF], the EC50 of adenylate cyclase stimulation (cAMP) was found to be 100 nM.
ISLDLTFHLLREVLEMARAEQLAQQAHS (peptide, UniProt P06850 159-186, looked up) [r/hCRF(6-33)]: the EC50 of adenylate cyclase stimulation (cAMP) was more than 1000 nM.
Consider YADAIFTNSYRKVLGQLSARKLLQDIMSRQQGESNQERGARARL (peptide, UniProt P01286 32-75, looked up, ends and bridges not checked) [hGRF], for which the EC50 of adenylate cyclase stimulation (cAMP) was more than 1000 nM.
In turn, HSDAVFTDNYTRLRKQMAVKKYLNSILN (peptide, UniProt P01282 125-152, looked up, species assumed, ends and bridges not checked) [VIP] showed an EC50 of adenylate cyclase stimulation (cAMP) of more than 1000 nM.
For the molecule FHLLREVLEMARAEQLAQQAHSNRKLMEII (peptide, UniProt P06850 165-194, looked up, d-Phe (position not given)) [d-Phe r/hCRF(12-41)], the EC50 of adenylate cyclase stimulation (cAMP) is more than 1000 nM.
In turn, QGPPISIDLSLELLRKMIEIEKQEKEKQQAANNRLLLDTI (peptide, UniProt P01144 1-40, looked up) [Sauvagine] returned an EC50 of adenylate cyclase stimulation (cAMP) of 0.5 nM.
On to CYFQNCPRG-NH2 (peptide, UniProt P01185 20-28, looked up, species assumed, disulfide 1-6; ends not checked) [AVP], for which the EC50 of adenylate cyclase stimulation (cAMP) is more than 1000 nM.
In turn, SEEPPISLDLTFHLLREVLEMARAEQLAQQAHSNRKLMEII (peptide, UniProt P06850 154-194, looked up) [rat/human CRF] gave an EC50 of adenylate cyclase stimulation (cAMP) of 20 nM.
